# Read-outs that look alike come from different tables or passages of the source.
# Experiments:
# [1] = test system: S. cerevisiae W303-1A jen1Δ ady2Δ cells; assay type: cell-based; settings: for Kd (diffusion component) for lactate, non-mediated transport: cells grown in YNB lactic acid
# Experimental: FIG. 4. Initial uptake rates of the radiolabelled 14C -Lactic acid at different concentrations. S. cerevisaie W303-1A jen1 Δady2Δ cells containing the plasmid pNJ-LctP-CJ-GFP and pNJ-LIdp-CJ-GFP were grown in YNB Lactic acid medium at pH 5.5 and 30° C., until mid-exponential growth phase.
# In an embodiment, to confirm the successful heterologous expression of transporters in this system several studies were carried out as described in (Soares-Silva, et al. 2015): radiolabelled lactate uptake assays, growth assays in solid minimal medium with carboxylates or sugars as sole carbon source and fluorescence microscopy to detect the location of GFP fusion proteins.
# The growth of the S. cerevisiae ady2Δjen1Δ strain expressing the NJ-LldP-CJ-GFP protein and control strains were evaluated in YNB media (supplemented according to the required auxotrophies) containing lactic acid (0.5%) pH 5.5 at 18° C. The S. cerevisiae ady2Δjen1Δ strains expressing the native LIdP (pLIdP), the empty vector (p416GPD) and the ScJen1p (pDS1) were used as controls.
# As a control the IctP gene was cloned in the p416GPD vector. For this construct the IctP gene was amplified from S. aureus genomic DNA using the primers LcFWD and LcREV (Table 1) and inserted and ligated in the p416GPD vector using the restriction enzymes BamHI and EcoRI. […] The growth of S. cerevisiae strains was tested in YNB media (supplemented according to the required auxotrophies) containing lactic acid 0.5% (pH 5.5).
# [2] = test system: S. cerevisiae W303-1A lactic acid-grown cells; settings: cited from earlier work
# [3] = test system: hxt null mutant EBY.4000 strain; settings: HXT1 expressed in EBY.4000, Özcan and Johnston 1999, cited from earlier work
molecule,measurement,setting,value
"ScJen1: S. cerevisiae lactate transporter Jen1, positive control (protein, UniProt P36035 2-616, looked up, GFP fusion, S. cerevisiae lactate transporter Jen1, positive control) Carboxylic acid transporter …: SSSITDEKISGEQQQPAGRKLYYNTSTFAEPPLVDGEGNPINYEPEVYNPDHEKLYHNPSLPAQSIQDTRDDELLERVYSQDQGVEYEEDEEDKPNLSAASIKSYALTRFTSLLHIHEFSWENVNPIPELRKMTWQNWNYFFMGYFAWLSAAWAFFCVSVSVAPLAELYDRPTKDITWGLGLVLFVRSAGAVIFGLWTDKSSRKWPYITCLFLFVIAQLCTPWCDTYEKFLGVRWITGIAMGGIYGCASATAIEDAPVKARSFLSGLFFSAYAMGFIFAIIFYRAFGYFRDDGWKILFWFSIFLPILLIFWRLLWPETKYFTKVLKARKLILSDAVKANGGEPLPKANFKQKMVSMKRTVQKYWLLFAYLVVLLVGPNYLTHASQDLLPTMLRAQLGLSKDAVTVIVVVTNIGAICGGMIFGQFMEVTGRRLGLLIACTMGGCFTYPAFMLRSEKAILGAGFMLYFCVFGVWGILPIHLAELAPADARALVAGLSYQLGNLASAAASTIETQLADRYPLERDASGAVIKEDYAKVMAILTGSVFIFTFACVFVGHEKFHRDLSSPVMKKYINQVEEYEADGLSISDIVEQKTECASVKMIDSNVSKTYEEHIETV",Vmax for lactic acid uptake,"[1]; 14C-lactic acid uptake, pH 5.0, cells grown in YNB lactic acid pH 5.5, 30° C., mid-exponential phase",0.23±0.01 nmol s-1 mg-1 dry wt
same,Km,"[1]; 14C-lactic acid uptake, pH 5.0, cells grown in YNB lactic acid pH 5.5, 30° C., mid-exponential phase, read-out: Km for lactic acid uptake",270 ± 40 µM
same,Vmax for lactic acid uptake (unit not given),"[1]; positive control in FIG. 4 legend, 14C-lactic acid",0.23
same,Km,"[1]; positive control in FIG. 4 legend, 14C-lactic acid, read-out: Km value for lactic acid uptake (unit inferred)",270 µM
same,Km,"[2]; Casal 1999, Paiva 2013, read-out: Km for lactate uptake",290 µM
same,Vmax for lactate uptake,"[2]; Casal 1999, Paiva 2013",0.40 nmol of lactic acid s1 mg of dry weight1
"pLIdP: Native E. coli LldP lactate permease cloned in p416GPD, control without eukaryotic termini (protein, UniProt P33231 1-551, looked up) L-lactate permease: MNLWQQNYDPAGNIWLSSLIASLPILFFFFALIKLKLKGYVAASWTVAIALAVALLFYKMPVANALASVVYGFFYGLWPIAWIIIAAVFVYKISVKTGQFDIIRSSILSITPDQRLQMLIVGFCFGAFLEGAAGFGAPVAITAALLVGLGFKPLYAAGLCLIVNTAPVAFGAMGIPILVAGQVTGIDSFEIGQMVGRQLPFMTIIVLFWIMAIMDGWRGIKETWPAVVVAGGSFAIAQYLSSNFIGPELPDIISSLVSLLCLTLFLKRWQPVRVFRFGDLGASQVDMTLAHTGYTAGQVLRAWTPFLFLTATVTLWSIPPFKALFASGGALYEWVINIPVPYLDKLVARMPPVVSEATAYAAVFKFDWFSATGTAILFAALLSIVWLKMKPSDAISTFGSTLKELALPIYSIGMVLAFAFISNYSGLSSTLALALAHTGHAFTFFSPFLGWLGVFLTGSDTSSNALFAALQATAAQQIGVSDLLLVAANTTGGVTGKMISPQSIAIACAAVGLVGKESDLFRFTVKHSLIFTCIVGVITTLQAYVLTWMIP","Kd (diffusion component) for lactate, non-mediated transport",[1]; 14C-lactic acid uptake,47 ± 2.5 µM
same,"Kd (diffusion component) for lactate, non-mediated transport","[1]; 14C-lactic acid uptake, listed as Lldp",43 ± 2 µM
same,Transport mechanism for labelled lactic acid,"[1]; lactic acid uptake, pH 5.0",non-mediated transport mechanism
"HXT1: S. cerevisiae low affinity glucose transporter, positive control (protein, UniProt P32465 1-570, looked up) Low-affinity glucose …: MNSTPDLISPQKSNSSNSYELESGRSKAMNTPEGKNESFHDNLSESQVQPAVAPPNTGKGVYVTVSICCVMVAFGGFIFGWDTGTISGFVAQTDFLRRFGMKHHDGSHYLSKVRTGLIVSIFNIGCAIGGIVLAKLGDMYGRRIGLIVVVVIYTIGIIIQIASINKWYQYFIGRIISGLGVGGITVLSPMLISEVAPSEMRGTLVSCYQVMITLGIFLGYCTNFGTKNYSNSVQWRVPLGLCFAWALFMIGGMMFVPESPRYLVEAGRIDEARASLAKVNKCPPDHPYIQYELETIEASVEEMRAAGTASWGELFTGKPAMFQRTMMGIMIQSLQQLTGDNYFFYYGTIVFQAVGLSDSFETSIVFGVVNFFSTCCSLYTVDRFGRRNCLMWGAVGMVCCYVVYASVGVTRLWPNGQDQPSSKGAGNCMIVFACFYIFCFATTWAPIAYVVISECFPLRVKSKCMSIASAANWIWGFLISFFTPFITGAINFYYGYVFMGCMVFAYFYVFFFVPETKGLSLEEVNDMYAEGVLPWKSASWVPVSKRGADYNADDLMHDDQPFYKSLFSRK",Glucose concentration at which growth is restored,[3],above 1%
same,Km,[3]; read-out: Km of low-affinity glucose transport,100000 µM

# Source: patent US20200263187A1, “A METHOD FOR EXPRESSION OF A PROKARYOTIC MEMBRANE PROTEIN IN AN EUKARYOTIC ORGANISM, PRODUCTS AND USES THEREOF” (Universidade Do Minho, priority 2017, published 2020)
